# “Also recorded” adds a separate entry of the source.
# Columns and labels:
# CHO cells = assay: Cell adhesion assay on coated culture plates, CHO cells; assay type: cell-based; settings: culture plates coated with 10 ug/ml protein; 0.1% BSA control
# Experimental: (§1) Cells were plated on culture plates coated with either 0.1% BSA (as a control), 10 ug/ml fibronectin (FN), or 10 ug/ml recombinant tropoelastin, and assayed for adherence to the coated substrate.
# (§2) 96-well plates were coated in duplicate overnight at 4° C. with 10 μg/ml collagen, fibronectin, tropoelastin, or 0.1% bovine serum albumin (BSA). Cells were harvested with 0.25% trypsin/1 mM EDTA, washed three times in adhesion buffer (0.5% BSA in basal medium), suspended at a working density of 5×10^5/ml in adhesion buffer, and then allowed to recover for 1 h at 37° C. (5% CO2). For integrin-blocking assays, 25 μg/ml anti-integrin antibodies (Chemicon, Temecula, Calif.) or control IgG (Jackson ImmunoResearch Laboratories, Inc, West Grove, Pa.) were added to the cell suspension during the recovery period. During the cell recovery, the coated 96-well plates were washed twice in dPBS and blocked for 1 h at 25° C. in 5.0% BSA (dPBS). The blocking solution was removed, and the wells were washed twice in dPBS. Recovered cells were added to the coated wells in a volume of 100 μl per well and placed at 37° C. for 30 minutes (5% CO2). […] Readings represent the number of adherent cells/well (average six high powered 100× fields, three taken from each of two separate wells).
# [1] = test system: human embryonic kidney cells (HEK 293); assay: Cell adhesion assay on coated culture plates, HEK 293 cells; assay type: cell-based; settings: culture plates coated with 10 ug/ml protein; 0.1% BSA control
# Experimental: as §1, §2
# [2] = test system: A2058 human melanoma cells; assay: Cell adhesion assay, A2058 cells; assay type: cell-based
# Experimental: A2058 cells were assayed for adherence to substrates coated with BSA (control), fibronectin, tropoelastin, or a bioactive fragment of tropoelastin corresponding to a single repeat of the hexameric sequence VGVAPG (SEQ ID No. 5). In comparison to adherence to BSA, A2058 cells adhered to substrates coated with fibronectin tropoelastin, or a bioactive fragment of tropoelastin.
# Cells were harvested with 0.25% trypsin/1 mM EDTA, washed three times in adhesion buffer (0.5% BSA in basal medium), suspended at a working density of 5×10^5/ml in adhesion buffer, and then allowed to recover for 1 h at 37° C. (5% CO2). For integrin-blocking assays, 25 μg/ml anti-integrin antibodies (Chemicon, Temecula, Calif.) or control IgG (Jackson ImmunoResearch Laboratories, Inc, West Grove, Pa.) were added to the cell suspension during the recovery period. During the cell recovery, the coated 96-well plates were washed twice in dPBS and blocked for 1 h at 25° C. in 5.0% BSA (dPBS). The blocking solution was removed, and the wells were washed twice in dPBS. Recovered cells were added to the coated wells in a volume of 100 μl per well and placed at 37° C. for 30 minutes (5% CO2). Following this incubation, the assay plate was inverted and assay wells were washed twice with 100 μl dPBS to remove non-specifically adhered cells. The wells were then fixed in Zamboni fixative, stained with Gill 1 hematoxylin, and overlayed with 80% glycerol. The assay was imaged at 100× magnification, capturing 3 random fields/well on a Zeiss Axiovert 200 inverted microscope equipped with a Zeiss Axiocam digital camera. Readings represent the number of adherent cells/well (average six high powered 100× fields, three taken from each of two separate wells).
# [3] = test system: endothelial progenitor cells; assay: Adhesion assay on coated stainless steel disks, endothelial progenitor cells; assay type: cell-based, human
# Experimental: We conducted experiments to assess whether tropoelastin promoted the adhesion of endothelial progenitor cells. Tropoelastin was covalently conjugated to a stainless steel disk approximately 6 mm in diameter. As a control, anti-CD34 antibody (known to promote endothelial cell adhesion) was covalently conjugated to similar stainless steel disks. Endothelial progenitor cells were cultured with these coated disks, and adhesion of the cells to the coated disks was assayed.
# (§3) Adhesion assays on 6 mm stainless steel disks (Orbus Medical Technologies, Ft Lauderdale, Fla.) pre-coated with anti-CD34 antibody, tropoelastin, coating vehicle, or uncoated metal were performed in a similar fashion as described above, with the following modifications: 48-well plates were used to hold the disks during the assay period to facilitate manipulation of the disks and twice the volume of cell suspension was applied (200 μl/well). Exemplary amounts of total protein covalently attached to each disk were approximately 100 micrograms. Post-adhesion, the wells were washed twice in dPBS, using a swirling motion to dislodge non-specifically adhered cells. […]
# [4] = test system: endothelial progenitor cells; assay: Cell spreading on coated stainless steel disks (phalloidin/DAPI staining); assay type: cell-based, human; settings: Triton X-100 permeabilized, phalloidin and DAPI staining
# Description: We also examined the appearance of the adherent endothelial cells.
# Cell spreading was examined by permeabilizing the endothelial cells that had adhered to the coated metal surfaces with Triton X-100 and staining with phalloidin to highlight the actin cytoskeleton and DAPI to mark cell nuclei. […] Thus, stainless steel surfaces coated with either tropoelastin or anti-CD34 antibody would likely endothelialize more rapidly than would similar bare metal surfaces when intravascularly placed.
# as §3
molecule,measurement,setting,value
"tropoelastin: recombinant human tropoelastin lacking native signal sequence, 10× His tag and Factor Xa site on N-terminus, 706 amino acid residues (SEQ ID NO: 4) (protein, listed as Homo sapiens) MGHHHHHHHHHHSSGGIEGRGGVPGAIPGGVPGGVFYPGAGLGALGGGALGPGGKPLKPVPGGLAGAGLGAGLGAFPAVTFPGALVPGGVADAAAAYKAAKAGAGLGGVPGVGGLGVSAGAVVPQPGAGVKPGKVPGVGLPGVYPGGVLPGARFPGVGVLPGVPTGAGVKPKAPGVGGAFAGIPGVGPFGGPQPGVPLGYPIKAPKLPGGYGLPYTTGKLPYGYGPGGVAGAAGKAGYPTGTGVGPQAAAAAAAKAAAKFGAGAAGVLPGVGGAGVPGVPGAIPGIGGIAGVGTPAAAAAAAAAAKAAKYGAAAGLVPGGPGFGPGVVGVPGAGVPGVGVPGAGIPVVPGAGIPGAAVPGVVSPEAAAKAAAKAAKYGARPGVGVGGIPTYGVGAGGFPGFGVGVGGIPGVAGVPGVGGVPGVGGVPGVGISPEAQAAAAAKAAKYGVGTPAAAAAKAAAKAAQFALLNLAGLVPGVGVAPGVGVAPGVGVAPGVGLAPGVGVAPGVGVAPGVGVAPGIGPGGVAAAAKSAAKVAAKAQLRAAAGLGAGIPGLGVGVGVPGLGVGAGVPGLGVGAGVPGFGAVPGALAAAKAAKYGAAVPGVLGGLGALGGVGIPGGVVGAGPAAAAAAAKAAAKAAQFGLVGAAGLGGLGVGGLGVPGVGGLGGIPPAAAAKAAKYGVAARPGFGLSPIFPGGACLGKACGRKRK",adhesion of CHO cells to the coated substrate,CHO cells,do not adhere to tropoelastin
same,adhesion of HEK 293 cells to the coated substrate,[1],do not adhere to tropoelastin
same,level of A2058 adhesion relative to fibronectin,[2]; 50 μg/ml of tropoelastin,similarly to 10 ug/ml of fibronectin
same,dose dependence of A2058 adhesion,[2]; FIG. 4,dose dependent
same,adhesion of A2058 cells in comparison to BSA,"[2]; FIG. 4, coated substrates, peptide 10 μM",adhered
same,adhesion of endothelial progenitor cells to coated stainless steel disks,"[3]; FIG. 7, protein covalently conjugated to 6 mm disk",promoted adhesion of human endothelial cells to the metal device
same,cell adhesion compared to polysaccharide-coated control disks or to bare metal disks,[3]; coated metal disks,significant increase in cell adhesion
same,spreading of adherent cells across the surface of the coated disk,[4],promoted spreading of the adherent cells across the surface of the device; also recorded: well spread cytoplasm and an organized actin cytoskeleton

# Reference: patent publication US10052415B2, “Tropoelastin for promoting endothelial cell adhesion or migration” (University of Utah Research Foundation, priority 2005, dated 2018)
